± gives the standard deviation of the averaged measurements.
Assay: total protein half-life in vivo (active degradation + dilution); higher = more stable protein
[1] = E. coli NCM3722 delta-clpP delta-lon delta-hslV, growth: N-lim chemostat, doubling time 6 h
[2] = E. coli NCM3722 delta-clpP, growth: N-lim chemostat, doubling time 6 h
[3] = E. coli NCM3722 delta-hslV, growth: N-lim chemostat, doubling time 6 h
[4] = E. coli NCM3722 delta-lon, growth: N-lim chemostat, doubling time 6 h
[5] = E. coli NCM3722 delta-smpB, growth: N-lim chemostat, doubling time 6 h
[6] = wild type E. coli NCM3722, growth: C-lim chemostat, doubling time 6 h
[7] = wild type E. coli NCM3722, growth: C-lim chemostat, doubling time 12 h
[8] = wild type E. coli NCM3722, growth: N-lim chemostat, doubling time 6 h
[9] = wild type E. coli NCM3722, growth: N-lim chemostat, doubling time 12 h
[10] = wild type E. coli NCM3722, growth: P-lim chemostat, doubling time 6 h
[11] = wild type E. coli NCM3722, growth: C-lim chemostat, doubling time 3 h
[12] = wild type E. coli NCM3722, growth: P-lim chemostat, doubling time 12 h

MADYQGKNVVIIGLGLTGLSCVDFFLARGVTPRVMDTRMTPPGLDKLPEAVERHTGSLNDEWLMAADLIVASPGIALAHPSLSAAADAGIEIVGDIELFCREAQAPIVAITGSNGKSTVTTLVGEMAKAAGVNVGVGGNIGLPALMLLDDECELYVLELSSFQLETTSSLQAVAATILNVTEDHMDRYPFGLQQYRAAKLRIYENAKVCVVNADDALTMPIRGADERCVSFGVNMGDYHLNHQQGETWLRVKGEKVLNVKEMKLSGQHNYTNALAALALADAAGLPRASSLKALTTFTGLPHRFEVVLEHNGVRWINDSKATNVGSTEAALNGLHVDGTLHLLLGGDGKSADFSPLARYLNGDNVRLYCFGRDGAQLAALRPEVAEQTETMEQAMRLLAPRVQPGDMVLLSPACASLDQFKNFEQRGNEFARLAKELG
total protein half-life in vivo [1]: 5.112 ± 0.021 h | total protein half-life in vivo [2]: 4.445 ± 0.041 h | total protein half-life in vivo [3]: 4.9241 ± 0.00076 h | total protein half-life in vivo [4]: 5.5 ± 0.35 h | total protein half-life in vivo [5]: 4.73 ± 0.097 h | total protein half-life in vivo [6]: 5.38 ± 0.69 h | total protein half-life in vivo [7]: 12.18 ± 0.043 h | total protein half-life in vivo [8]: 4.57 ± 0.075 h | total protein half-life in vivo [9]: 9.03 ± 0.63 h | total protein half-life in vivo [10]: 5.815 ± 0.041 h

MAEGKAMSEFLPFSRPAMGVEELAAVKEVLESGWITTGPKNQALEQAFCQLTGNQHAIAVSSATAGMHITLMALKIGKGDEVITPSLTWVSTLNMISLLGATPVMVDVDRDTLMVTPEAIESAITPRTKAIIPVHYAGAPADIDAIRAIGERYGIAVIEDAAHAVGTYYKGRHIGAKGTAIFSFHAIKNITCAEGGLIVTDNENLARQLRMLKFHGLGVDAYDRQTWGRAPQAEVLTPGYKYNLTDINAAIALTQLVKLEHLNTRRREIAQQYQQALAALPFQPLSLPAWPHVHAWHLFIIRVDEQRCGISRDALMEALKERGIGTGLHFRAAHTQKYYRERFPTLSLPNTEWNSERICSLPLFPDMTTADADHVITALQQLAGQ
total protein half-life in vivo [1]: 4.86 ± 0.74 h | total protein half-life in vivo [2]: 3.7 ± 0.29 h | total protein half-life in vivo [3]: 3.72 ± 0.19 h | total protein half-life in vivo [4]: 4.52 ± 0.06 h | total protein half-life in vivo [5]: 3.93 ± 0.41 h | total protein half-life in vivo [11]: 3.52 ± 0.55 h | total protein half-life in vivo [6]: 4.78 ± 0.6 h | total protein half-life in vivo [7]: 9.35 ± 0.95 h | total protein half-life in vivo [8]: 3.78 ± 0.055 h | total protein half-life in vivo [9]: 6.38 ± 0.47 h | total protein half-life in vivo [10]: 5.53 ± 0.55 h | total protein half-life in vivo [12]: 11.7 ± 0.21 h

MAEHLMSDVPFWQSKTLDEMSDAEWESLCDGCGQCCLHKLMDEDTDEIYFTNVACRQLNIKTCQCRNYERRFEFEPDCIKLTRENLPTFEWLPMTCAYRLLAEGKDLPAWHPLLTGSKAAMHGERISVRHIAVKESEVIDWQDHILNKPDWAQ [P0A8L5]
total protein half-life in vivo [1]: 3.88 ± 0.37 h | total protein half-life in vivo [6]: 1.17 h | total protein half-life in vivo [12]: 1.97 h

MAENQSTVENAKEKLDRWLKDGITTPGGKLPSERELGELLGIKRMTLRQALLNLEAESKIFRKDRKGWFVTQPRFNYSPELSASFQRAAIEQGREPSWGFTEKNRTSDIPETLAPLIAVTPSTELYRITGWGALEGHKVFYHETYINPEVAPGFIEQLENHSFSAVWEKCYQKETVVKKLIFKPVRMPGDISKYLGGSAGMPAILIEKHRADQQGNIVQIDIEYWRFEAVDLIINL [P0ACM9]
total protein half-life in vivo [1]: 6.16 ± 0.15 h | total protein half-life in vivo [2]: 5.99 ± 0.32 h | total protein half-life in vivo [3]: 5.13 ± 0.17 h | total protein half-life in vivo [5]: 4.95 h | total protein half-life in vivo [7]: 13.2 ± 3.2 h | total protein half-life in vivo [8]: 5.84 ± 0.19 h | total protein half-life in vivo [9]: 9.06 ± 1 h | total protein half-life in vivo [10]: 5.01 ± 1.8 h | total protein half-life in vivo [12]: 9.28 h

MAEVTQLKRYDARPINWGKWFLIGIGMLVSAFILLVPMIYIFVQAFSKGLMPVLQNLADPDMLHAIWLTVMIALIAVPVNLVFGILLAWLVTRFNFPGRQLLLTLLDIPFAVSPVVAGLVYLLFYGSNGPLGGWLDEHNLQIMFSWPGMVLVTIFVTCPFVVRELVPVMLSQGSQEDEAAILLGASGWQMFRRVTLPNIRWALLYGVVLTNARAIGEFGAVSVVSGSIRGETLSLPLQIELLEQDYNTVGSFTAAALLTLMAIITLFLKSMLQWRLENQEKRAQQEEHHEH [P0AEB0]
total protein half-life in vivo [1]: 4.83 h | total protein half-life in vivo [2]: 5.5 h | total protein half-life in vivo [3]: 4.23 h | total protein half-life in vivo [5]: 4.22 h | total protein half-life in vivo [11]: 2.64 h | total protein half-life in vivo [6]: 4.97 ± 1.4 h | total protein half-life in vivo [8]: 4.59 h | total protein half-life in vivo [9]: 4.73 h | total protein half-life in vivo [10]: 4.26 h | total protein half-life in vivo [12]: 10.7 ± 2 h

MAFKIWQIGLHLQQQEAVAVAIVRGAKECFLQRWWRLPLENDIIKDGRIVDAQQLAKTLLPWSRELPQRHHIMLAFPASRTLQRSFPRPSMSLGEREQTAWLSGTMARELDMDPDSLRFDYSEDSLSPAYNVTAAQSKELATLLTLAERLRVHVSAITPDASALQRFLPFLPSHQQCLAWRDNEQWLWATRYSWGRKLAVGMTSAKELAAALSVDPESVAICGEGGFDPWEAVSVRQPPLPPPGGDFAIALGLALGKAY
total protein half-life in vivo [1]: 4.83 h | total protein half-life in vivo [2]: 3.81 h | total protein half-life in vivo [3]: 2.84 h | total protein half-life in vivo [5]: 2.82 ± 0.24 h | total protein half-life in vivo [7]: 11.7 ± 1.8 h | total protein half-life in vivo [10]: 3.857 ± 0.0092 h | total protein half-life in vivo [12]: 8.02 h

MAFQVKIHQIRAFVEVARQGSIRGASRMLNMSQPALSKSIQELEEGLAAQLFFRRSKGVTLTDAGESFYQHASLILEELRAAQEDIRQRQGQLAGQINIGMGASISRSLMPAVISRFHQQHPQVKVRIMEGQLVSMINELRQGELDFTINTYYQGPYDHEFTFEKLLEKQFAIFCRPGHPAIGARSIKQLLDYSWTMPTPHGSYYKQLSELLDDQAQTPQVGVVCETFSACISLVAKSDFLSKLPEEMGCDPLHGQGLVMLPVSEILPKAAYYLIQRRDSRQTPLTASLITQFRRECGYLQS
total protein half-life in vivo [4]: 2.39 ± 0.088 h | total protein half-life in vivo [8]: 0.867 h | total protein half-life in vivo [9]: 0.857 h

MAFVSEREIVRKIFSKKIDFTILAFFYISSIFFLLCSGVLFQYFTAAFTKGNCYECSMKLDYIKQFYFSLETAWYLISAVAVFIASVFIQHRIKAYLTLLAITWIVLTITDVALIHALDNIAMNNILLNILYNLFGAILLSLFMCLSNSLLFHLNKIKHIPMILSAMIPLVSAIIIAILITAVIYLLFARQAVEIEMDISEGSDIAYVGVKDNEESFGFLNDKKTDTPTYLDVIKNGSLIYNDTQGLSGADIYIVSGCYALPDLLRNVPLDAKKSFLNVKKLEITQKLPMMGFIQGESADVMPKAASRLSLSKQDDKFMLASSVTDSQIKFKSNNAQLMVAFAFMPITTNGILHDYTYDIIINDKKYKIENHVAPLSRLDKNKKMKCEYQQISDLTNTYNINANYLTGFLLVLKPDDIINYNNSPSVLLKTDFAFYKKTYQKLDKIYDDISNGKLSSLRATGISQFSINGKHLSLRPESEIIISEGSLYGLVNKSKKIKIYGTADLVFVDNKIMNLRKITYLQSKLEIFGSSIMDILKYIFGLGLLAISIKFIHSYFKNDVNENLFL
total protein half-life in vivo [8]: 2.06 h | total protein half-life in vivo [12]: 2.3 ± 0.71 h

MAGINLNKKLWRIPQQGMVRGVCAGIANYFDVPVKLVRILVVLSIFFGLALFTLVAYIILSFALDPMPDNMAFGEQLPSSSELLDEVDRELAASETRLREMERYVTSDTFTLRSRFRQL [P0AFN2]
total protein half-life in vivo [1]: 5.469 ± 0.044 h | total protein half-life in vivo [2]: > 8 h | total protein half-life in vivo [3]: 5.48 ± 0.47 h | total protein half-life in vivo [5]: 4.53 ± 0.38 h | total protein half-life in vivo [11]: 2.498 ± 0.015 h | total protein half-life in vivo [6]: 3.81 ± 0.91 h | total protein half-life in vivo [7]: 6.7 ± 3.6 h | total protein half-life in vivo [8]: 4.862 ± 0.037 h | total protein half-life in vivo [9]: 9.24 ± 0.17 h | total protein half-life in vivo [10]: 7.55 h | total protein half-life in vivo [12]: 10 ± 0.79 h

MAGLKLQAVTKSWDGKTQVIKPLTLDVADGEFIVMVGPSGCGKSTLLRMVAGLERVTEGDIWINDQRVTEMEPKDRGIAMVFQNYALYPHMSVEENMAWGLKIRGMGKQQIAERVKEAARILELDGLLKRRPRELSGGQRQRVAMGRAIVRDPAVFLFDEPLSNLDAKLRVQMRLELQQLHRRLKTTSLYVTHDQVEAMTLAQRVMVMNGGVAEQIGTPVEVYEKPASLFVASFIGSPAMNLLTGRVNNEGTHFELDGGIELPLNGGYRQYAGRKMTLGIRPEHIALSSQAEGGVPMVMDTLEILGADNLAHGRWGEQKLVVRLAHQERPTAGSTLWLHLAENQLHLFDGETGQRV
total protein half-life in vivo [1]: 6.33 ± 0.31 h | total protein half-life in vivo [2]: 6 ± 0.91 h | total protein half-life in vivo [3]: 5.83 ± 0.11 h | total protein half-life in vivo [4]: 4.99 ± 0.61 h | total protein half-life in vivo [5]: 5.45 ± 0.75 h | total protein half-life in vivo [11]: 3.13 ± 0.15 h | total protein half-life in vivo [6]: 5.54 ± 0.4 h | total protein half-life in vivo [7]: 12 ± 0.92 h | total protein half-life in vivo [8]: 5.14 ± 0.41 h | total protein half-life in vivo [10]: 6.25 ± 0.35 h | total protein half-life in vivo [12]: 13.2 ± 0.23 h
